The record followed here is doi:10.1101/2025.02.13.638205, “Cryo-EM structure of endogenous Plasmodium falciparum Pfs230 and Pfs48/45 fertilization complex” (bioRxiv, 2025).

The target of assay [1] is T1, Pfs48/45, endogenous, from P. falciparum stage V gametocytes (Plasmodium falciparum NF54 (NF54/iGP2 …)).
T1 construct: Pfs48/45 of Plasmodium falciparum, three 6-cysteine domains (D1-D3), migrates at about 50 kDa; residues 28-428 fitted in the cryo-EM model; also called P48/45; source: endogenous, P. falciparum NF54/iGP2 Pfs230FL stage V gametocytes; co-purified with Pfs230 (StrepTactin XT, SEC) and in parasite lysate
T1 chain: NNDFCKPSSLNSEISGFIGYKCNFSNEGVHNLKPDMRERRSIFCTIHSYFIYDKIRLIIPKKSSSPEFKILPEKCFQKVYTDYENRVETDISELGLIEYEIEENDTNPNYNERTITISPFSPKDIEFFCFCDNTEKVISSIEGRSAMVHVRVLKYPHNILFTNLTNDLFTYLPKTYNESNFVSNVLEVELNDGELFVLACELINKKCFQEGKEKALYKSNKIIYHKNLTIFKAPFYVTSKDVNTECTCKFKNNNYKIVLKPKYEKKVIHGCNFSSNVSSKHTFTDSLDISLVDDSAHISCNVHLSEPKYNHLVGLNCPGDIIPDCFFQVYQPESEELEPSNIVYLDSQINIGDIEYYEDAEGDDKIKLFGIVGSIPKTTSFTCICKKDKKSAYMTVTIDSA
Put plainly: pull-down. The following applies: one partner purified.

The target of assay [2] is recombinant Pfs230 D5D6 (T1281-G1549) (Plasmodium falciparum 3D7, UniProt P68874). Put plainly: BLI. To be noted: both partners purified.
recombinant Pfs230 D5D6 (T1281-G1549), sequence (P68874 1281-1549): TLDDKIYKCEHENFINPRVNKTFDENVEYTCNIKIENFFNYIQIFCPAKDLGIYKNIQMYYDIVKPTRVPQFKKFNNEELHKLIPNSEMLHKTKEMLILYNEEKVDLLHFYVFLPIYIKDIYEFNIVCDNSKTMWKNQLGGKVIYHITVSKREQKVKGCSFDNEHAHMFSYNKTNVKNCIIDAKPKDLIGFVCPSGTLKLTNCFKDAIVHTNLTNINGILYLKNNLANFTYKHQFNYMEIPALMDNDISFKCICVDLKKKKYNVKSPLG
Assay [3] has as its target recombinant Pfs230 D11D12 (D2446-T2818) (Plasmodium falciparum 3D7, UniProt P68874). The experiment in a line: BLI. The following applies: both partners purified.
The next assay addresses recombinant Pfs230 D1D2 (Plasmodium falciparum 3D7/NF54, UniProt P68874). Put plainly: BLI. The following applies: both partners purified.
Assay [4] has as its target Pfs230, endogenous, in fixed NF54/iGP2 stage V gametocytes (Plasmodium falciparum (endogenous in …, UniProt P68874)). The experiment in a line: immunostaining of cells or tissue. The following applies: one partner purified.

recombinant Pfs230 D11D12 (D2446-T2818), sequence (P68874 2446-2818, one chain of several): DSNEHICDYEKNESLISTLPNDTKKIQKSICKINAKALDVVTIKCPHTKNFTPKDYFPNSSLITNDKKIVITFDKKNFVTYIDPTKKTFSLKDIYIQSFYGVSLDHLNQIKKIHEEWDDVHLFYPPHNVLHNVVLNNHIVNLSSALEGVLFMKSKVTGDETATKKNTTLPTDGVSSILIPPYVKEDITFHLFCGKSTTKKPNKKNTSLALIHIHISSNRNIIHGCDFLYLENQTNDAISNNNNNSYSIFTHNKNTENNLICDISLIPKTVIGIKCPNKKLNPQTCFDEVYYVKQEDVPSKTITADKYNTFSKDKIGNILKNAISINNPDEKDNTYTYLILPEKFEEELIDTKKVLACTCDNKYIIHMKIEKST
Pfs230, endogenous, in fixed NF54/iGP2 stage V gametocytes (Plasmodium falciparum, sequence (P68874 21-3135): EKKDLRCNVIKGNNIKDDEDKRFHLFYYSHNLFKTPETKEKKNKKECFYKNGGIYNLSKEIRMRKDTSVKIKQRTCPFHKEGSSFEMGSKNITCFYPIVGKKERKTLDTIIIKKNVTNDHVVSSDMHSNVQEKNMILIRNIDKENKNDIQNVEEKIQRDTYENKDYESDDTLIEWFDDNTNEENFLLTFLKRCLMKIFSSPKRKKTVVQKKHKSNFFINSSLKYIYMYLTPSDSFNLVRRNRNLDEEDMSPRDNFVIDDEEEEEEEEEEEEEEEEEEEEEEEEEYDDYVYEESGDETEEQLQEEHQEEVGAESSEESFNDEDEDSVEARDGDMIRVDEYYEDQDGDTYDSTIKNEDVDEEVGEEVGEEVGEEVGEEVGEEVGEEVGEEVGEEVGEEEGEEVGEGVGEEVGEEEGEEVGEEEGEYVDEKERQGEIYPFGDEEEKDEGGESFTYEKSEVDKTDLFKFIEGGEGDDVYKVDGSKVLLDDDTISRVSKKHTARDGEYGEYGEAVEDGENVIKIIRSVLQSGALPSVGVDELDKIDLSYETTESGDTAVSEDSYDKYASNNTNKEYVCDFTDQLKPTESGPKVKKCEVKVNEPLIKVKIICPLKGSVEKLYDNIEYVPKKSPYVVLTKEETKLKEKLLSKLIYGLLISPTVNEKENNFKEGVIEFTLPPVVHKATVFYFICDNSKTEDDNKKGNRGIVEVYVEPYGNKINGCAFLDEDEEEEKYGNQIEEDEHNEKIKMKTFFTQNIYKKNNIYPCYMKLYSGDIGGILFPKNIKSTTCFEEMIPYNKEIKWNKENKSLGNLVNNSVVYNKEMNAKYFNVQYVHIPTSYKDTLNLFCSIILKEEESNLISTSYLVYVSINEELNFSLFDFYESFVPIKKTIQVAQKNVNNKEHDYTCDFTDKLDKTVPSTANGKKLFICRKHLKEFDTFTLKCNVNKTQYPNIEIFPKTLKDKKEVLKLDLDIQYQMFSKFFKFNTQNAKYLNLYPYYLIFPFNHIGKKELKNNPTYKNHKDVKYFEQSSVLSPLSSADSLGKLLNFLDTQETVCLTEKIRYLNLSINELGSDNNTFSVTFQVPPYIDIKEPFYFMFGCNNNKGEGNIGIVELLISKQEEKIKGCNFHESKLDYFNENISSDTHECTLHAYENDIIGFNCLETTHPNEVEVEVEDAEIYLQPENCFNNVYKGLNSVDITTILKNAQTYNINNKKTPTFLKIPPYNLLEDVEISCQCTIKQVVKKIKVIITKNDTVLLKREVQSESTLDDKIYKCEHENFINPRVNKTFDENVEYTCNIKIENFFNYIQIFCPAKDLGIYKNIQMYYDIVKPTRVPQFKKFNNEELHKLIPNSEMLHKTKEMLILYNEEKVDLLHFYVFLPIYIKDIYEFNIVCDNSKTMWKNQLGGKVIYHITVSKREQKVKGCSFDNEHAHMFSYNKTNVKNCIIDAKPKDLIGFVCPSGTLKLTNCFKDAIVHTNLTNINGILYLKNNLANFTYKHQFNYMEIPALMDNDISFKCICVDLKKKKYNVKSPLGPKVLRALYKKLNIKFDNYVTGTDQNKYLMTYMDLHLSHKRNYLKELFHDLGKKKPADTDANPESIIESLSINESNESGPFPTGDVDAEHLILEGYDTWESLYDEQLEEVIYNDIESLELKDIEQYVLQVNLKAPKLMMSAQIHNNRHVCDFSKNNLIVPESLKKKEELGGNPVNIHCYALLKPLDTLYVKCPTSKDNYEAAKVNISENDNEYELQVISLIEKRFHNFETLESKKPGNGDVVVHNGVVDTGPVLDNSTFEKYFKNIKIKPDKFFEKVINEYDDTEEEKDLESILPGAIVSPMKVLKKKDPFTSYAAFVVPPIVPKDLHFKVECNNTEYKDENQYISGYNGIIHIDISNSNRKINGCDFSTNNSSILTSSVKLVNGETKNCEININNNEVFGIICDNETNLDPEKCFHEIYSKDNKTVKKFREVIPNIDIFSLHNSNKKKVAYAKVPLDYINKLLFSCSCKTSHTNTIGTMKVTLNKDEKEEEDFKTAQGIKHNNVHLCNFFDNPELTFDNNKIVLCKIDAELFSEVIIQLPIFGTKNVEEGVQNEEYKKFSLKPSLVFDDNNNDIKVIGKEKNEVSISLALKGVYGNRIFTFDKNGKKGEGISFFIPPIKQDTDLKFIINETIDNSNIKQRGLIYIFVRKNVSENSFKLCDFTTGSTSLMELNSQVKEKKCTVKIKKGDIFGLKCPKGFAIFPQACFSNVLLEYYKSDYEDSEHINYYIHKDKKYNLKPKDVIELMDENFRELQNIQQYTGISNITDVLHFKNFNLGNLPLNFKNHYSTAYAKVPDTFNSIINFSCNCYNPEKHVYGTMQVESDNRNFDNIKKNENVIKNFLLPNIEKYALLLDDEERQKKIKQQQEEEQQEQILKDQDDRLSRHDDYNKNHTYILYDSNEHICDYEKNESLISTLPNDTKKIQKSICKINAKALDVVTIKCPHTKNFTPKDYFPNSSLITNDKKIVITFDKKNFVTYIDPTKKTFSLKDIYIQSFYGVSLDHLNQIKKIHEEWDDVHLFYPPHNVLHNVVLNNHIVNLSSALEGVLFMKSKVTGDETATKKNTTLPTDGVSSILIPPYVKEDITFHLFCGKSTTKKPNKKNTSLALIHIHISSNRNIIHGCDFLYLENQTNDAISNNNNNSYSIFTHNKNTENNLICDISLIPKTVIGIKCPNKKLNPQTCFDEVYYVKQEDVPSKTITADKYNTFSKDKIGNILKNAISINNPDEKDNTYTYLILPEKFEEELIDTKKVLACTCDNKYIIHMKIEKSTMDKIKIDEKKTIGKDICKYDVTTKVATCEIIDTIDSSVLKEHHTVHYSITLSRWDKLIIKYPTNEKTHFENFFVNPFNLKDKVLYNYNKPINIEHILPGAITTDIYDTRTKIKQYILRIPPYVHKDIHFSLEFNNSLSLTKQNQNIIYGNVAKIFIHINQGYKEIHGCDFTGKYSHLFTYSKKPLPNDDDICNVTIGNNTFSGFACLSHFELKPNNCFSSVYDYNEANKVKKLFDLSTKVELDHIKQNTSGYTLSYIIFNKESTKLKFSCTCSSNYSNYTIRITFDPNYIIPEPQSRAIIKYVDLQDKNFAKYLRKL

B1: anti-Pfs48/45 monoclonal antibody TB31F (antibody, V domains shown)
VH: EVQLVQSGGGLVQPGGSLRLSCAASGFTFNNYWMSWVRQAPGKGLEWVSSISNIGGTIYYPDSVKGRFTISRDNSKNTLYLQMNSLRAEDTAVYYCTRDLRMSDYFDYWGQGTMVTVSS
VL: NFMLTQPHSVSESPGKTVTISCTRSTGNIGSNYVSWYQQRPGSSPTTVIYRDDQRPSGVPDRFSGSIDRSSNSASLTISGLKTEDEADYYCHSYSTGMYIFGGGTKLTVL
B1: the binding result in assay [1] was “binds”.

B2: nanobody W2810 (VHH)
VHH: QVQLQESGGGLVQAGGSLRLSCAASGRTFSSYAMGWFHQAPGKEREFVASISWSGGSIRYADSVKGRFTVSRDNAKNTAYLQMNSLKPEDTGVYYCAAGPYSSDYGGFGSWGQGTQVTVSS
Consider B2, for which the binding result is given as “no binding (tested: 100 nM)” in assay [2], “no binding (tested: 100 nM)” in assay [3], “no binding (tested: 100 nM)” in the assay with recombinant Pfs230 D1D2 and “binds” in assay [4].

B3: nanobody W2812 (VHH)
VHH: QVQLQESGGGLVQPGGSLRLSCAASGRTFSSYMMAWFRQSQGNERELVAGLTRSGVSAYYADSVKGRFTISRDNAKNTVYLQMNSLKPKDTAVYYCAAASTTYINHIYTNPSNYPHWGPGTQVTVSS
As to B3, the binding result in assay [2] was “no binding (tested: 100 nM)”; in assay [3], “no binding (tested: 100 nM)”; with recombinant Pfs230 D1D2, “no binding (tested: 100 nM)”; in assay [4], “binds”.

B4: nanobody W2809 (VHH)
VHH: QVQLQESGGGLVQAGGSLRLSCAASEHTFRDYAMGWFRQAPGKEREFVAAISWSGSIKYYADSVKGRFTISRDNAKRTQYLQMSSLKPEDTAVYYCAARWPGGGMWYEPPYDYWGQGTQVTVSS
Turning to B4, the binding result (in assay [2]; in assay [3]; with recombinant Pfs230 D1D2) was “no binding” in each case.
